Among the data in patent US20180344829A1 (INNATE PHARMA, published 2018) are binding result and EC50 values, retold here.

Assay [1] concerns the target T1, human Siglec-7 expressed on CHO cells (human, UniProt Q9Y286 19-467).
T1 construct: NCBI NP_055200.1 is printed; also called Siglec-7 CHO transfectants
Kind of assay: flow cytometry on CHO transfectants. The protocol:
(§1) Cells expressing Siglec-3, -5, -6, -7, -8, -9, -11 and -12 were generated using the amino acid sequences and Genbank references for Siglec polypeptides shown below in Table 2. Anti-Siglec-10 antibodies are tested by flow cytometry for binding to the cells. Binding of antibodies on human Siglec-10 was tested by flow cytometry on CHO cells transfected with human Siglec-10, human Siglec-7 or human Siglec-11. Cells were incubated 1h in Staining Buffer (SB) with primary antibodies at 8 ug/ml, then were washed three times with SB. Secondary Goat F(ab′)2 Anti-Human IgG (Fc) PE (Beckman Coulter) was incubated for 30 min at 4° C., cells were washed twice with SB. […] The 6 antibodies bound human Siglec-10 CHO transfectants with high differential in binding affinity over the control Siglec-7 or Siglec-11 CHO transfectants (no or only low residual binding to Siglec-7 or Siglec-11). […] The EC₅₀ as determined by flow cytometry for binding for S10-A antibody to Siglec-10 expressing CHO cells was 0.1 μg/ml.
(A flow cytometer gives signals particle by particle.)

Assay [2] concerns the target T2, human Siglec-10 expressed on CHO cells (human, UniProt Q96LC7 17-697).
T2 construct: NCBI NP_149121 is printed; also called huSiglec-10; Siglec-10 CHO transfectants
T2 sequence: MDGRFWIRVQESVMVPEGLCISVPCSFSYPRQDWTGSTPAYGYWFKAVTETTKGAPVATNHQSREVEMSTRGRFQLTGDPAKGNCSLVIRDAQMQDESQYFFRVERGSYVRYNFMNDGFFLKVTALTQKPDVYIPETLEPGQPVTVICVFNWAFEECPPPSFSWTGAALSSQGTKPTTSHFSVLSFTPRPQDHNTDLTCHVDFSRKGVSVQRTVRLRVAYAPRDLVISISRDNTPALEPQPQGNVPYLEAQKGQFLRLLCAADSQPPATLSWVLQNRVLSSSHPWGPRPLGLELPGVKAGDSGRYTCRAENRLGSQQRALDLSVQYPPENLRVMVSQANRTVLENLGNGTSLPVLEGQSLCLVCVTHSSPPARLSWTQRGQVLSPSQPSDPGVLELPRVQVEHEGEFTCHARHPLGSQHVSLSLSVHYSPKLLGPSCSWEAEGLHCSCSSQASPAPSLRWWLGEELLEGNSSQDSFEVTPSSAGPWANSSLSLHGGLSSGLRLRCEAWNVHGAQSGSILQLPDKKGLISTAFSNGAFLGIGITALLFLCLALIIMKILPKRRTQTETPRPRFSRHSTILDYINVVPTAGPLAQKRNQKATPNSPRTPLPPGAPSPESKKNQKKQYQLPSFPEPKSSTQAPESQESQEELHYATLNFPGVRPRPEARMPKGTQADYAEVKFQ
Kind of assay: flow cytometry on CHO transfectants, antibodies at 8 ug/ml. The protocol:
as §1

Assay [3] addresses T2, human Siglec-10 expressed on CHO cells. Nature of the assay: flow cytometry on Siglec-10 expressing CHO cells.

T1 sequence (Q9Y286 19-467): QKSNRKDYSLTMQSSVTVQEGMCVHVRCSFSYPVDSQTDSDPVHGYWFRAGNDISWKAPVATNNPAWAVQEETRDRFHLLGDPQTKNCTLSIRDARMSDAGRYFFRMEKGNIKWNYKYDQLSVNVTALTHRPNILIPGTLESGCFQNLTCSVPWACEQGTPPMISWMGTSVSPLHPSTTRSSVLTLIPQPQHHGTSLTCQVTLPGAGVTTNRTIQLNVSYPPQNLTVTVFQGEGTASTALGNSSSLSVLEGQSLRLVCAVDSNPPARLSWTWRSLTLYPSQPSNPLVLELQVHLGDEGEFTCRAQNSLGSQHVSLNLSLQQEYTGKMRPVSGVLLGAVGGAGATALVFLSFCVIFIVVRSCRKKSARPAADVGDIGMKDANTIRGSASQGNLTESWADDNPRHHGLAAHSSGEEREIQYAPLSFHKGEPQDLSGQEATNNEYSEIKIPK

B1: antibody S10-B (antibody, human IgG1, V domains shown)
VH: QVQLKESGPGLVAPSQSLSITCTVSGFSLTDYDVNWVRQPPGKGLEWLGMIWGDGITDYNSALKSRLSISKDNSKSQVFLEMNSLQTDDTARYYCARGGIYYFGNTYGYWFFDVWGAGTTVTVSS
VL: DIVMTQSPSSLAVSTGEKVTMSCKSSQSLLNSRTRKNYLAWYQQKPGQSPKLLIYWASTRESGVPDRFTGSGSGTDFTLTISSVQAEDLAVYYCKQSYNLRTFGGGTKLEIKR
notes: also called CHS2-S10-B
For the molecule B1, the results for the binding result in assay [1] and in assay [2] were “no binding (tested: 8 ug/ml)” and “binds”, respectively.

B2: antibody S10-C (antibody, human IgG1, V domains shown)
VH: QVQLKESGPGLVAPSQSLSITCTVSGFSLTDYDVNWVRQPPGKGLEWLGMIWGDGITDYNSALKSRLSISKDNSKSQVFLEMNSLQTDDTARYYCARGGIYYFGNTYGYWFFDVWGAGTTVTVSS
VL: EILLTQSPSSLAVSTGEKVTMSCKSSQSLLNSRTRKNYLAWYQQKPGQSPKLLIYWASTRESGVPDRFTGSGSGTDFTLTISSVQAEDLAVYYCKQSYNLRTFGGGTKLEIKR
notes: also called CHS2-S10-C
With B2, the binding result in assay [1] is on record as “no binding (tested: 8 ug/ml)”; in assay [2], “binds”.

B3: antibody S10-A (antibody, human IgG1, V domains shown)
VH: QIQLQQSGAELEKPGASVKMSCKASGYTFTSYWMHWVKQRPGQGLEWIGYINPDTDSTEYNQKFRDKATLTADKSSSTAYMQLSSLTSEDSAVYYCARPYYRYAGYAMDYWGQGTSVTVSS
VL: DIKMTQSPSSMYASLGERVTITCKASQDINSYLSWFQQKPGKSPKTLIYRANRLVDGVPSRFSGSGSGQVYSLTISSLEYEDLGIYYCLQYDEFPWTFGGGTKLEIKR
notes: also called CHS2-S10-A
Turning to B3, the binding result in assay [1] is recorded as “no binding (tested: 8 ug/ml)”. Further, in assay [3], the EC50 amounted to 0.1 µg/mL.

As a reminder, the EC50 is the concentration giving half of the maximal effect. A lower EC50 goes with greater potency.
